In the DeepSol protein solubility set:

assay: soluble on expression in E. coli; label from the status in PepcDB or PDB records

| Sequence | soluble on expression in E. coli |
| --- | --- |
| MQFYRRLTAIKAISFDLDDTLYNNRPIMQSVEQQMAHYFTEKFAILLPELLVEPKQVFNRRFWAPYRQQAIKAHQDISHDVVRLRFESYRLGLLAHNLSAEAARKEAQAGLDYFINLRSDFTVPKESHELLASLSKAFPLVSISNGNVDTRALGIDHYFQHIYHAGFQTGNCHDESEHLLKQKPETDMFSLVCQQLDILPEQLLHVGDCGFADIHGALNAGCQTAWLPQYGVGKSLQQIPHIELSLVSDLSQLIRKA | not soluble |
| MTIYFLFGKTGSGKSYIGELLRQLSIVHIDGDNHITQKMRDCLIEDEQMTPEMIDEFVDVLIDVIKTQKTKTPNESFVISQAMYLDKHRLKLLNAIPELEFVMIDVIPVLRASRITNRFRNQESKVSLRYATRMDAFFEYPSHETIRLENNQSSDETLIEQIREKMPALFNMESKEELNSGIQLQFALEHHHHHH | soluble |
| MGSDKIHHHHHHMKIVYFVDGLNRGGVESVVCHLSSSFAKLRNKIYIICLHKDMNDLHLEIPEYISVFYLPFESNRNHHVNYIRYLPNLVDLLKKIKPDIVHAHNSSFSYFFLSIGILLSRTVPVNIRSIHFSGFFLEKRTIEDKIRFIFDWCACRLLKTIIISVGPTVSRVVKRLYTSNQHLTIVNGIDTKEKFCKRNLTKSCMGISEDKYVAVYVARICEGKNHDTLIKAWEIVTQYHPSALLLFIGDGPLKEQYQSVVHEKSLDDKITFTGSIPNIVEYLSIADVGVFPSESEGLPLVLMEMMAVELPVVASKIPSCCDLIEENVNGILYETYDYKDLANKILSVLCDNELKKKLGEQAKLLVCNHYSIENMINRHNILYQKLLLKQNFTDAYN | not soluble |
| MQDIWRLPATELADLVRSRRVSAREVAEAALHRLDAVNPAINAVVDHKADDALTQADAVDAAFAKGETPGVLAGVPVTVKVNVDQQGFATTNGVTLQRDWIAKTNNPVVDNLRKAGAVIIGRTNTPAFSYRWFTSNKLHGETLNPRDPSITPGGSSGGAAAAVAAGIGAIAHGTDIAGSVRYPAYACGVHGLRPTIGRVAAFNASSPERPICPQISAVSGPLARTIADVRLGLQALAQPDARDPWWVPAPLDGPPRDKRAALCIAPDDLAVVRAVRDALKDAARRLEAAGWVVDEIASTPPLREAAELQAQFWLGDGYQAMLDAAEREGDEGALACLHGNRDKAIGDLASYSKLLTRRATLTRDWQTFFETYAVLLTPVCGELPFPQRLDLKDEESFKRVWAAQMPQVGLPFMGLPALTVSTGMVGRVPVGVQVVSGRYREDLCLLAGEAIEA | not soluble |
| MGSDKIHHHHHHMSGPQGRLAIIAGSGMLPVYVAEAARAAGEDPFILPLKNEADQRWDGFQSAVIGVGDMAGLSSLIKRHGIKRVVMSGGVKKRPNFKEIHVNLRFLVKLPFAVKTLLSGGDDAVLKMVIQLIESQGCRVVGAHEIAPQLLAELGPLGSSRPTDDDRRDIAAAAKAADALGRLDVGQGAVSVGGRIVALEGVEGTDRMLQRVAELRSEGRISSRRSGVLVKLCKPQQDIRADLPTIGQSTIENAARAGLSGIAVQAGRALLLQRQETLRQADAAGIFISGIELAPEGEAWLS | not soluble |
| MNEREAKMYELEFPAPDVASDGVDGPTLIIAMQGYADAGLAVEASADHLLSALEHRPVAVFNNDELIDYRSRRPAVTIDHNIVVDANELKLSMDVLRDSNGTPFLLLSGPEPDLRWDAFSQAVADLVRRFGVRRTICIYAAPMTVPHTRPLIVSAHGNSLDLIKHHFSIDSKVTIPGSASLHIERLLNKNNIDVAGYTAHVPHYLSASAYPLATLKLLEAITTSTNLDFPLKTLEADAQKTALQVEEQVAGSQEIESVVKILEQQYDEELEKYRERNPKALEIAEDDLPDADELGEEFERFLANIDEENGSDD | not soluble |
| SKREMPSMYPQAKGILSALKEKGIEMAIASRSPTSDIANTFLDKLNIKPMFVAKEIYSSWSHKTEHFQKIHTRTGVPFTAMLFFDDEDRNIKSVSKMGVTSILVGDGVTLGAFRQGLTEFTQN | not soluble |
| MGSDKIHHHHHHMGVQSAVRVHRAISEIGQDAWDACAASTGDPFVSYDFLSILEESGCVAARTGWAPQHLTVLDEADQVAGVMPLYLKSHSQGEYVFDHSWADAYERAGGRYYPKLQCSSPFSPVTGSRLIVRPDIDAAEGRSALMGGALTLCERMGASSLHVTFPVEDQWRWMGERGMLLRQDQQYHWENRGYETFDDFLGALSANRRKTIRRERRDAQEGLEIVALTGADLTEDHWDAFFAFYMDTGGRKWGRPYLNRPFFSLLGQRMADKVLLILARRPGGPFIAGALNLLGRDCLYGRHWGCVEDAPFLHFELCYYQAIEHAIRLGLPRVEAGAQGQHKIARGYLPSAVYSAHWIADPMLREPVARYLERERAAVESDMEMLTEEYSPFREER | not soluble |
| MIKLKNVTKTYKMGEEIIYALKNVNLNIKEGEFVSIMGPSGSGKSTMLNIIGCLDKPTEGEVYIDNIKTNDLDDDELTKIRRDKIGFVFQQFNLIPLLTALENVELPLIFKYRGAMSGEERRKRALECLKMAELEERFANHKPNQLSGGQQQRVAIARALANNPPIILADEPTGALDSKTGEKIMQLLKKLNEEDGKTVVVVTHDINVARFGERIIYLKDGEVEREEKLRGFDDR | soluble |
| GMPKLDLDSIERRIGSVYPGRLNAAMDGRSSLRLGDAGGLSQFGVNLVRLEPGAKSSLRHYHMEQDEFVMVTEGALVLVDDQGEHPMVPGDCAAFPAGDPNGHQFVNRTDAPATFLVVGTRTPTETAYYSDMDMMVKQDASGFAFTRKDGSPLTADQIGDDNE | soluble |
| MNIQALINDKVSQALEAAGAPAGSPAAVRQSAKPQFGDYQANGVMGVAKKLGTNPREFAQKVLDVLDLDGIASKTEIAGPGFINIFLSEEFLAKQADAALADSR | not soluble |
| VADEYKWALASIYETDDEWEAAFEDVQAELDALNDYEGRLTEDGETLLAALELRDAVYRDAKTVSAYASMRSDEDTRDQEYQALQARGASLMTDVSSATSFFDPELQACTREQLQSMIEETPELAAYEHYFDDVLRMKPHTRSAEVEGLLSELGEVFGAPSDAYNMLTDADLEFPTVEDPAGDAVEISQSN | soluble |
| MADHNDRGRQGEEIALKHLRQQGYQIEALNWQSGRRELDIVASTSRELVVVEVKTRTEGFLLAPEEAVDARKRRLISESAHHYVRMYAIDLPVRFDVISVVLSADGSCKRIEHRENAFPLLLKRSQRSTPRRRRL | not soluble |
| MKHTEESLMSTTEKSRKAEEDDEKDMKKRTQFPSSSTSSDPPVGIGGSGALVVNRRRQEGNPVLKYVRNVRYEWGDIGPDFECGPTFGVVYLSFKYHKQHPEYVYTRINGNAENRYRNKVLLGYCNMEEPRHVLRELNMICFREAWTFVVVYTVEEAAEYIELFKTTQKKEITIKKKAIDDGGDSSMSDERRRNREAAIGFLTAARSITKTDADRLLFHFGTLQAISTASETSISACPGVGPIKAKNLHSFLHAIISPNEQD | not soluble |
| MASYPCHQHASAFDQAARSRGHNNRRTALRPRRQQEATEVRPEQKMPTLLRVYIDGPHGMGKTTTTQLLVALGSRDDIVYVPEPMTYWRVLGASETIANIYTTQHRLDQGEISAGDAAVVMTSAQITMGMPYAVTDAVLAPHIGGEAGSSHAPPPALTLIFDRHPIAALLCYPAARYLMGSMTPQAVLAFVALIPPTLPGTNIVLGALPEDRHIDRLAKRQRPGERLDLAMLAAIRRVYGLLANTVRYLQCGGSWREDWGQLSGTAVPPQGAEPQSNAGPRPHIGDTLFTLFRAPELLAPNGDLYNVFAWALDVLAKRLRSMHVFILDYDQSPAGCRDALLQLTSGMVQTHVTTPGSIPTICDLARTFAREMGEAN | soluble |
| MDLRRFITLKTVVEEGSFLRASQKLCCTQSTVTFHIQQLEQEFSVQLFEKIGRRMCLTREGKKLLPHIYELTRVMDTLREAAKKESDPDGELRVVSGETLLSYRMPQVLQRFRQRAPKVRLSLQSLNCYVIRDALLNDEADVGVFYRVGNDDALNRRELGEQSLVLVASPQIADVDFTEPGRHNACSFIINEPQCVFRQIFESTLRQRRITVENTIELISIESIKRCVAANIGVSYLPRFAVAKELECGELIELPFGEQSQTITAMCAHHAGKAVSPAMHTFIQCVEESFVAG | soluble |
